Measured values published in patent publication US20240317858A1 (Adimab, published 2024).
Residue numbers refer to the chain shown, from its start.

B1: Antibody No. A003 (ADI-26913) Fab (Fab, V domains shown)
VH: QVQLVQSGAEVKKPGASVKVSCKASGFNIKDYYMHWVRQAPGQRLEWMGWIDLENANTIYDAKFQGRVTITRDTSASTAYMELSSLRSEDTAVYYCARDQYGRYFYDVWGQGTLVTVSS
VL: DIVMTQSPDSLAVSLGERATINCKSSQSLLNARTGKNYLAWYQQKPGQPPKLLIYWASTRESGVPDRFSGSGSGTDFTLTISSLQAEDVAVYYCKQSYSRRTFGGGTKVEIK
notes: Fab by papain digestion of the IgG1
B2: Antibody No. V016 (ADI-76359) Fab (Fab, V domains shown)
VH: B1 VH with N28D, A97G, Q100A
VL: B1 VL with R100L
notes: as for B1
B3: Antibody No. V017 (ADI-76360) Fab (Fab, V domains shown)
VH: B1 VH with N57D, A97G, Q100A
VL: B1 VL with R100L
notes: as for B1
B4: Antibody No. V018 (ADI-76361) Fab (Fab, V domains shown)
VH: B1 VH with N28D, N55E, A56G, Q100A
VL: B1 VL with R100L
notes: as for B1
B5: Antibody No. V019 (ADI-76362) Fab (Fab, V domains shown)
VH: B1 VH with N55E, A56G, N57D, Q100A
VL: B1 VL with R100L
notes: as for B1
B6: Antibody No. V002 (ADI-67445) Fab (Fab, V domains shown)
VH: B1 VH with N57E, G66D, Q100A, V108E
VL: B1 VL
notes: as for B1
B7: Antibody No. V009 (ADI-70326) Fab (Fab, V domains shown)
VH: B1 VH with N28D, M48I, D52E, N57D, I59V, Q100A
VL: B1 VL with T5S, E61S, K95V, S99F
notes: as for B1
B8: Antibody No. A004 (ADI-26920) Fab (Fab, V domains shown)
VH: B1 VH with A97G, Q100A
VL: B1 VL with R100L
notes: as for B1
B9: Antibody No. V014 (ADI-76357) Fab (Fab, V domains shown)
VH: B1 VH with N28D
VL: B1 VL
notes: as for B1
B10: Antibody No. A005 (ADI-26921) Fab (Fab, V domains shown)
VH: B1 VH with N55E, A56G, Q100A
VL: B1 VL with R100L
notes: as for B1
B11: Antibody No. V015 (ADI-76358) Fab (Fab, V domains shown)
VH: B1 VH with N57D
VL: B1 VL
notes: as for B1
B12: Antibody No. V008 (ADI-70325) Fab (Fab, V domains shown)
VH: B1 VH with M48I, N57E, I59V, G66D, Q100A
VL: B1 VL with T5S, E61S, K95V, S99F
notes: as for B1
B13: Antibody No. V012 (ADI-70329) Fab (Fab, V domains shown)
VH: B1 VH with I29D, M48I, N57E, I59V, G66D, Q100A
VL: B1 VL with T5S, E61S, K95V, S99F
notes: as for B1
B14: Antibody No. V003 (ADI-67446) Fab (Fab, V domains shown)
VH: B1 VH with N28D, D52E, N57D, Q100A
VL: B1 VL
notes: as for B1
B15: Antibody No. V005 (ADI-67448) Fab (Fab, V domains shown)
VH: B1 VH with K30D, A56D, Q100A
VL: B1 VL
notes: Fab by papain digestion of the IgG1; VH as printed is identical to that of V004
B16: Antibody No. V006 (ADI-67449) Fab (Fab, V domains shown)
VH: B1 VH with I29D, N57E, G66D, Q100A
VL: B1 VL
notes: as for B1

target: T1, Cynomolgus CD3εδ Fc heterodimer (Cy CD3ε Fc + CD3δ Fc-HIS) (cynomolgus, UniProt Q95LI5 22-117; Q95LI8 22-100); test: SPR (Biacore), Fab over immobilized CD3εδ Fc, pH 6.0
T1 construct: range 22-117;range 22-100; Made in HEK 293 cells with a heterologous signal peptide; also called Cy CD3εδ-Fc; cyno CD3εδ Fc; not shown: Fc; Fc followed by HIS tag
Description: (§1) Anti-CD3 antibodies A001-A005, V002, V004, V007, V009, V010, V013, and V014-V019 were produced in CHO cells, and Fab fragments were generated from IgG1 antibodies by papain digestion and purification as described in Example 2. Monovalent binding affinity at pH 7.4 and pH 6.0 was measured via surface plasmon resonance (SPR). Briefly, human or cynomolgus CD3εδ Fe heterodimer produced as described in Example 2 was immobilized to a CM5 sensor chip in a Biacore® X100 (Cytiva, previously GE Healthcare Life Sciences) to a response level of ˜500 RUs. Fabs were then injected at 3-fold increasing concentrations, ranging from 0.74-180 nM. The sensor chip was doubly regenerated between cycles using 0.35 M EDTA and 0.1 M NaOH. The resulting data were double reference subtracted and fit to a 1:1 binding model using Biacore® Evaluation Software.

T1 sequence (Q95LI5 22-117, stated change not applied, form in doubt, chain 1 of 2): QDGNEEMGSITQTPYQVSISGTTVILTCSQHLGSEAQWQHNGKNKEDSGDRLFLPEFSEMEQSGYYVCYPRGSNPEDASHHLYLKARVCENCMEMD
T1 sequence (Q95LI8 22-100, stated change not applied, form in doubt, chain 2 of 2): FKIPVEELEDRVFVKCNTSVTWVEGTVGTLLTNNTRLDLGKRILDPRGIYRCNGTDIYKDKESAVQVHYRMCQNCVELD

Row | Binder | Kd [nM]
1 | B1 | 11
2 | B2 | 23
3 | B3 | 26
4 | B4 | 29
5 | B5 | 29
6 | B6 | 3.3
7 | B7 | 0.24
8 | B8 | 15
9 | B9 | 12
10 | B10 | 24
11 | B11 | 11

target: T2, Human CD3εδ Fc heterodimer (Hu CD3ε Fc + CD3δ Fc-HIS) (human, UniProt P07766 22-126; P04234 22-100); test: as above
T2 construct: range 22-126;range 22-100; Made in HEK 293 cells with a heterologous signal peptide; also called Hu CD3εδ-Fc; CD3εδ Fc-HIS heterodimer; not shown: Fc; Fc followed by HIS tag
Description: as §1

T2 sequence (P07766 22-126, stated change not applied, form in doubt, chain 1 of 2): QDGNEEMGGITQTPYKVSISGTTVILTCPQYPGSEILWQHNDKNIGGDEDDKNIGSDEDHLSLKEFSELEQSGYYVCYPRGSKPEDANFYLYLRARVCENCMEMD
T2 sequence (P04234 22-100, stated change not applied, form in doubt, chain 2 of 2): as the sequence (Q95LI8 22-100, stated change not applied, form in doubt, chain 2 of 2) above, with V5I, K15N, V20I, T32S, N33D, N34I, A64T, N74S counted along it

Row | Binder | Kd [nM]
12 | B1 | 11
13 | B2 | 22
14 | B3 | 25
15 | B4 | 31
16 | B5 | 33
17 | B6 | 4.2
18 | B7 | 1.1
19 | B8 | 16
20 | B9 | 12
21 | B10 | 20
22 | B11 | 14

target: T1, Cynomolgus CD3εδ Fc heterodimer (Cy …); test: BLI (Octet), Fab monovalent, pH 7.4
Description: (§2) ForteBio KD measurements (Biolayer interferometry; BLI). ForteBio affinity measurements were performed generally as previously described (Estep, P., et al., High throughput solution-based measurement of antibody-antigen affinity and epitope binning. MAbs, 2013. 5(2): p. 270-8.). Briefly, ForteBio affinity measurements were performed by loading IgGs or CD3εδ Fe-HIS heterodimer onto AHC sensors. Sensors were equilibrated off-line in assay buffer for 30 min and then monitored on-line for 60 seconds for baseline establishment. Sensors with loaded IgGs were exposed to 100 nM antigen (e.g., CD3) for 3 min, afterwards they were transferred to assay buffer for 10 min for off-rate measurement. Sensors loaded with CD3εδ Fe-HIS heterodimer were exposed to 100 nM anti-CD3 Fab for 3 min, afterwards they were transferred to assay buffer for 3 min or 10 min for off-rate measurement. Kinetics were analyzed using the 1:1 binding model. For measuring binding at different pHs, measurements were performed at pre-determined pHs (e.g., pH 7.4 and pH 6.0).
(§3) Anti-CD3 antibodies A001-A005, V002, V004, V007, V009, V010, V013, and V014-V019 were produced as IgG1s in CHO cells, and Fab fragments were generated from IgG1 antibodies by papain digestion and purification as described in Example 2. Human, cynomolgus, rhesus, and mouse CD3εδ Fc heterodimers were produced, and monovalent binding affinity and avidity at pH 7.4 and pH 6.0 were measured using the Octet® HTX instrument (ForteBio) as described in Example 2.

Row | Binder | Kd [nM]
23 | B1 | 28
24 | B2 | 75
25 | B3 | 96
26 | B4 | 28
27 | B5 | 34
28 | B6 | 12
29 | B7 | 1.9
30 | B8 | 50
31 | B9 | 39
32 | B10 | 39
33 | B11 | 58

target: T3, Rhesus CD3εδ Fc heterodimer (rhesus); test: BLI (Octet), Fab monovalent, pH 7.4
T3 construct: extracellular domain; also called Rh CD3εδ-Fc
Description: as §2, §3

Row | Binder | Kd [nM]
34 | B1 | 33
35 | B2 | 87
36 | B4 | 29
37 | B5 | 79
38 | B6 | 15
39 | B7 | 1.8
40 | B8 | 51
41 | B9 | 39
42 | B10 | 36
43 | B11 | 53

target: T2, Human CD3εδ Fc heterodimer (Hu CD3ε Fc …); test: BLI (Octet), Fab monovalent, pH 7.4
Description: as §2, §3

Row | Binder | Kd [nM]
44 | B1 | 35
45 | B2 | 77
46 | B3 | 420
47 | B4 | 37
48 | B5 | 64
49 | B6 | 13
50 | B7 | 1.6
51 | B8 | 42
52 | B9 | 44
53 | B10 | 78
54 | B11 | 56

target: T1, Cynomolgus CD3εδ Fc heterodimer (Cy …); test: BLI (Octet), Fab monovalent, pH 6.0
Description: as §2, §3

Row | Binder | Kd [nM]
55 | B1 | 32
56 | B2 | 49
57 | B3 | 34
58 | B4 | 17
59 | B5 | 21
60 | B6 | 8
61 | B7 | 1.6
62 | B8 | 23
63 | B9 | 21
64 | B10 | 45
65 | B11 | 29

target: T2, Human CD3εδ Fc heterodimer (Hu CD3ε Fc …); test: BLI (Octet), Fab monovalent, pH 6.0
Description: as §2, §3

Row | Binder | Kd [nM]
66 | B1 | 29
67 | B2 | 37
68 | B3 | 58
69 | B4 | 33
70 | B5 | 36
71 | B6 | 8.8
72 | B7 | 1.2
73 | B8 | 29
74 | B9 | 24
75 | B10 | 35
76 | B11 | 34

target: T1, Cynomolgus CD3εδ Fc heterodimer (Cy …); test: SPR (Biacore), Fab over immobilized CD3εδ Fc, pH 7.4
Description: as §1

Row | Binder | Kd [nM]
77 | B1 | 9.3
78 | B2 | 16
79 | B3 | 16
80 | B4 | 36
81 | B7 | 0.15
82 | B8 | 9
83 | B9 | 11
84 | B10 | 33
85 | B11 | 19

target: T2, Human CD3εδ Fc heterodimer (Hu CD3ε Fc …); test: as above
Description: as §1

Row | Binder | Kd [nM]
86 | B1 | 9.9
87 | B2 | 14
88 | B3 | 19
89 | B4 | 42
90 | B7 | 0.14
91 | B8 | 10
92 | B9 | 11
93 | B10 | 24
94 | B11 | 18

target: T1, Cynomolgus CD3εδ Fc heterodimer (Cy …); test: BLI (Octet), CD3εδ Fc on AHC sensor, 100 nM Fab
Description: (§4) Affinity of the anti-CD3 antibodies for CD3 was determined by measuring their kinetic constants (kₒₙ, koff, KD) on ForteBio Octet®. ForteBio affinity measurements were performed generally as previously described (Estep et al., MAbs. 2013 5(2):270-8). […] Sensors were equilibrated off-line in assay buffer for 30 minutes and then monitored on-line for 60 seconds for baseline establishment. For monovalent binding measurement, sensors with loaded CD3εδ Fc were exposed to 100 nM anti-CD3 Fab, as further described in Example 2 below] for 3 minutes, afterwards they were transferred to assay buffer for 3 minutes for off-rate measurement. Kinetics data were fit using a 1:1 binding model in the data analysis software provided by ForteBio.

Row | Binder | Kd [nM]
95 | B12 | 0.91
96 | B13 | 1.64
97 | B6 | 7.33
98 | B14 | 4.18
99 | B7 | 0.81
100 | B15 | 6.06
101 | B16 | 8.15

target: T2, Human CD3εδ Fc heterodimer (Hu CD3ε Fc …); test: BLI (Octet), CD3εδ Fc on AHC sensor, 100 nM Fab
Description: as §4

Row | Binder | Kd [nM]
102 | B12 | 0.95
103 | B13 | 1.65
104 | B6 | 7.84
105 | B14 | 4.57
106 | B7 | 0.81
107 | B15 | 6.98
108 | B16 | 7.97
